Measured values from PMC9482650, “Quantitative fragmentomics allow affinity mapping of interactomes” (Nature Communications, 2022).

Key:
Assay in all cases: holdup assay
Design in all cases: key: below the threshold = too weak to quantify, mostly under pKd 3.1 to 4
Conditions in all cases: plain residues with an end cap or a label only (N-terminal biotin on a linker: ttds)
CNKSR3, Q6P9H4 = target: CNKSR3, Q6P9H4
DLG2_1, Q15700 = target: DLG2_1, Q15700
DLG5_2, Q8TDM6 = target: DLG5_2, Q8TDM6
DVL2, O14641 = target: DVL2, O14641
GIPC1, O14908 = target: T1, GIPC1, O14908
T1 sequence (O14908 128-223, limits assumed, looked up): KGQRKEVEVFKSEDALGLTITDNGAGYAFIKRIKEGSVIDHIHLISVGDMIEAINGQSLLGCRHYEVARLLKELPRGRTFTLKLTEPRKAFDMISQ

GIPC3, Q8TF64 = target: GIPC3, Q8TF64
INTU, Q9ULD6 = target: T2, INTU, Q9ULD6
T2 sequence (Q9ULD6 180-273, limits assumed, looked up): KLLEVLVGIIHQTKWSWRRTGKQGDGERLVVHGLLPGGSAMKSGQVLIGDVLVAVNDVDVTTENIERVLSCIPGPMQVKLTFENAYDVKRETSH

LNX2_4, Q8N448 = target: T3, LNX2_4, Q8N448
T3 sequence (Q8N448 595-690, limits assumed, looked up): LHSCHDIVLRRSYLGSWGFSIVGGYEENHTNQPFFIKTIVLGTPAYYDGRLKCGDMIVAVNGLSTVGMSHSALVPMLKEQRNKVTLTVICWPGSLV

MAGI1_3, Q96QZ7 = target: MAGI1_3, Q96QZ7
MAGI1_4, Q96QZ7 = target: MAGI1_4, Q96QZ7
MAGI3_3, Q5TCQ9 = target: MAGI3_3, Q5TCQ9
MAGI3_4, Q5TCQ9 = target: MAGI3_4, Q5TCQ9
MAGI3_5, Q5TCQ9 = target: MAGI3_5, Q5TCQ9
MAST3, O60307 = target: MAST3, O60307
NHERF2_1, Q15599 = target: NHERF2_1, Q15599
PARD3B_3, Q8TEW8 = target: PARD3B_3, Q8TEW8
PARD3_1, Q8TEW0 = target: PARD3_1, Q8TEW0
PDLIM4, P50479 = target: PDLIM4, P50479
PDZD2_1, O15018 = target: T4, PDZD2_1, O15018
T4 sequence (O15018 80-192, limits assumed, looked up): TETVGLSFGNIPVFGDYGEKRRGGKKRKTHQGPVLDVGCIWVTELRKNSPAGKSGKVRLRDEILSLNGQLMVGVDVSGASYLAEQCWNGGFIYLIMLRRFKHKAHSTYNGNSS

PDZD7_2, Q9H5P4 = target: T5, PDZD7_2, Q9H5P4
T5 sequence (Q9H5P4 205-303, limits assumed, looked up): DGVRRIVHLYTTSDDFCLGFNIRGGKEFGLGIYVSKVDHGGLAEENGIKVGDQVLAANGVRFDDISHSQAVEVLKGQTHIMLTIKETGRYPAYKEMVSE

PREX2_2, Q70Z35 = target: T6, PREX2_2, Q70Z35
T6 sequence (Q70Z35 672-764, limits assumed, looked up): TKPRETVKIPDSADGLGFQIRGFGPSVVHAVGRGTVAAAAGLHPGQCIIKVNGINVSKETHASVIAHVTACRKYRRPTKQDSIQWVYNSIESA

PTPN13_5, Q12923 = target: T7, PTPN13_5, Q12923
T7 sequence (Q12923 1877-1975, limits assumed, looked up): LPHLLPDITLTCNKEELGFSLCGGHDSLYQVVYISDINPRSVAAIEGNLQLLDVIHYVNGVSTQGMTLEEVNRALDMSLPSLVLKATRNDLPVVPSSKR

RIMS1, Q86UR5 = target: RIMS1, Q86UR5
SDCBP_1, O00560 = target: SDCBP_1, O00560
SHROOM2, Q13796 = target: T8, SHROOM2, Q13796
T8 sequence (Q13796 21-118, limits assumed, looked up): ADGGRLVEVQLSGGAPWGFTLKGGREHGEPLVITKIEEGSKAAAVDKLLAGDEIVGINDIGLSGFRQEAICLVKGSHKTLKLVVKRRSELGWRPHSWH

TJP3_2, O95049 = target: T9, TJP3_2, O95049
T9 sequence (O95049 190-282, limits assumed, looked up): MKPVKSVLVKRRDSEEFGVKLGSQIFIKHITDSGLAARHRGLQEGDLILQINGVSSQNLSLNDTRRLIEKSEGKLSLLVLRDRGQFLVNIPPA

USH1C_2, Q9Y6N9 = target: T10, USH1C_2, Q9Y6N9
T10 sequence (Q9Y6N9 206-303, limits assumed, looked up): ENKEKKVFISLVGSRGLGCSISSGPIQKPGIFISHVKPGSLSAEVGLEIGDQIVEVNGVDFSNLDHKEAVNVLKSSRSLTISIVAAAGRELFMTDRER

GRIP2_2, Q9C0E4 = target: GRIP2_2, Q9C0E4
Sequence of GRIP2_2, Q9C0E4 (Q9C0E4 137-245): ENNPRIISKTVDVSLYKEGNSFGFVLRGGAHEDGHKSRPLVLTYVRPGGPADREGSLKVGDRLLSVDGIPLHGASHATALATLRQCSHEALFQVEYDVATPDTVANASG

Sequence of SDCBP_1, O00560 (O00560 111-198): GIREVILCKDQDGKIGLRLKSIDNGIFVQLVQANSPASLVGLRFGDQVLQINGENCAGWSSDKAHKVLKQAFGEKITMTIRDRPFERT
Sequence of RIMS1, Q86UR5 (Q86UR5 584-692): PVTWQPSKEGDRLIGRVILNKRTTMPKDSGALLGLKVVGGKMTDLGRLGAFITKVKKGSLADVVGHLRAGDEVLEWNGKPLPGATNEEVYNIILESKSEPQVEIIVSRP
Sequence of MAST3, O60307 (O60307 945-1048): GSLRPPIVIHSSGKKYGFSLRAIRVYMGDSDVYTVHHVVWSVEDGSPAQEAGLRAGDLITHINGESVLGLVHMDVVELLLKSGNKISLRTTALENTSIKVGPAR
Sequence of MAGI1_4, Q96QZ7 (Q96QZ7 other isoform, or with tags, fused parts or gaps): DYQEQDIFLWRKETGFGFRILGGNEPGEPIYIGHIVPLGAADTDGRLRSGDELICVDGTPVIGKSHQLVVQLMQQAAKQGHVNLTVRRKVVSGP
Sequence of MAGI3_4, Q5TCQ9 (Q5TCQ9 716-815): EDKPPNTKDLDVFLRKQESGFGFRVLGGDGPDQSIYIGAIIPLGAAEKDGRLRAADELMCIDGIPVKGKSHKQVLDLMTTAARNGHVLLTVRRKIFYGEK
Sequence of NHERF2_1, Q15599 (Q15599 9-91): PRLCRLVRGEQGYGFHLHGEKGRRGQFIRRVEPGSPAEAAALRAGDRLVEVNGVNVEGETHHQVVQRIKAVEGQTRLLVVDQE
Sequence of PDLIM4, P50479 (P50479 1-83): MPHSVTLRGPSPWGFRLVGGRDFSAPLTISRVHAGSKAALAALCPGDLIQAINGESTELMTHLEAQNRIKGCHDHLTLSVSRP
Sequence of PARD3_1, Q8TEW0 (Q8TEW0 264-372): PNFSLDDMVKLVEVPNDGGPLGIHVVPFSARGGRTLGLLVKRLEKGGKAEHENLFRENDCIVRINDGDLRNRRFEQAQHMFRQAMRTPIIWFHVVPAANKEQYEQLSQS
Sequence of DLG5_2, Q8TDM6 (Q8TDM6 714-800): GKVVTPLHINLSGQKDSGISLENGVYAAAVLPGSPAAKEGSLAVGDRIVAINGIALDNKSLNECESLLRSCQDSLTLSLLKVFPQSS
Sequence of DVL2, O14641 (O14641 260-359): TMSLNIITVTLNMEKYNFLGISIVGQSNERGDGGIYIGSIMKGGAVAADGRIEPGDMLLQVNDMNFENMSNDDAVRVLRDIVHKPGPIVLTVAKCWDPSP
Sequence of GIPC3, Q8TF64 (Q8TF64 107-202): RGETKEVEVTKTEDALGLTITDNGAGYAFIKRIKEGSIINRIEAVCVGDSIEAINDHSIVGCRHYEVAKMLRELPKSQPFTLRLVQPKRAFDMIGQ
Sequence of MAGI3_5, Q5TCQ9 (Q5TCQ9 847-941): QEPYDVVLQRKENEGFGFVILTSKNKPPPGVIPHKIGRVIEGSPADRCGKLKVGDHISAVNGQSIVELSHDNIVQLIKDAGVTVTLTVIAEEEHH
Sequence of CNKSR3, Q6P9H4 (Q6P9H4 203-303): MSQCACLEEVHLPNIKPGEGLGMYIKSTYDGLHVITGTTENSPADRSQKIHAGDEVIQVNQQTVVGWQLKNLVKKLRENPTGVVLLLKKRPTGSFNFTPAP
Sequence of MAGI1_3, Q96QZ7 (Q96QZ7 638-725): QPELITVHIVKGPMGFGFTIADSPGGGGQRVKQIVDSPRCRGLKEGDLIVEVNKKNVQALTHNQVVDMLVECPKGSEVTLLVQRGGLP
Sequence of PARD3B_3, Q8TEW8 (Q8TEW8 490-594): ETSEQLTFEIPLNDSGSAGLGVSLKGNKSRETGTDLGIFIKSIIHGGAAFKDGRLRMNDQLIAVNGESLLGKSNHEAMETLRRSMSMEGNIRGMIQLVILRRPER
Sequence of MAGI3_3, Q5TCQ9 (Q5TCQ9 572-655): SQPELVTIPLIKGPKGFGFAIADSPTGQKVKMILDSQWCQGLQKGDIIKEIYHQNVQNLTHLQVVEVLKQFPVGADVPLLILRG

| Binder | pKd (CNKSR3, Q6P9H4) | pKd (DLG2_1, Q15700) | pKd (DLG5_2, Q8TDM6) | pKd (DVL2, O14641) | pKd (GIPC1, O14908) | pKd (GIPC3, Q8TF64) | pKd (LNX2_4, Q8N448) | pKd (MAGI1_3, Q96QZ7) | pKd (MAGI1_4, Q96QZ7) | pKd (MAGI3_3, Q5TCQ9) | pKd (MAGI3_4, Q5TCQ9) | pKd (MAGI3_5, Q5TCQ9) | pKd (MAST3, O60307) | pKd (NHERF2_1, Q15599) | pKd (PARD3B_3, Q8TEW8) | pKd (PARD3_1, Q8TEW0) | pKd (PDLIM4, P50479) | pKd (PDZD2_1, O15018) | pKd (PDZD7_2, Q9H5P4) | pKd (PREX2_2, Q70Z35) | further results |
| --- | --- | --- | --- | --- | --- | --- | --- | --- | --- | --- | --- | --- | --- | --- | --- | --- | --- | --- | --- | --- | --- |
| SRPQRTQTQV [HPV67-E6, A4U7F2] | below the threshold | 4.25 | 4.16 | below the threshold | below the threshold | below the threshold | below the threshold | 4.12 | below the threshold | below the threshold | below the threshold | below the threshold | below the threshold | below the threshold | below the threshold | below the threshold | below the threshold | below the threshold | below the threshold | below the threshold | pKd (INTU, Q9ULD6): below the threshold; pKd (PTPN13_5, Q12923): below the threshold; pKd (RIMS1, Q86UR5): below the threshold; pKd (SDCBP_1, O00560): below the threshold; pKd (SHROOM2, Q13796): below the threshold; pKd (TJP3_2, O95049): below the threshold; pKd (USH1C_2, Q9Y6N9): below the threshold |
| PKTPPTDTSV [KIR3DL3, Q8N743] | below the threshold | below the threshold | below the threshold | below the threshold | below the threshold | below the threshold | below the threshold | below the threshold | below the threshold | below the threshold | below the threshold | below the threshold | below the threshold | below the threshold | below the threshold | below the threshold | below the threshold | 4.3 | below the threshold | below the threshold | pKd (GRIP2_2, Q9C0E4): below the threshold; pKd (INTU, Q9ULD6): below the threshold; pKd (PTPN13_5, Q12923): below the threshold; pKd (RIMS1, Q86UR5): below the threshold; pKd (SDCBP_1, O00560): below the threshold; pKd (SHROOM2, Q13796): below the threshold; pKd (TJP3_2, O95049): below the threshold; pKd (USH1C_2, Q9Y6N9): below the threshold |
| SVWLRKETRV [CYSLTR2, Q9NS75] | below the threshold | 5.26 | 4.71 | below the threshold | below the threshold | below the threshold | below the threshold | 5.09 | below the threshold | below the threshold | below the threshold | below the threshold | below the threshold | below the threshold | below the threshold | below the threshold | below the threshold | below the threshold | below the threshold | below the threshold | pKd (GRIP2_2, Q9C0E4): below the threshold; pKd (INTU, Q9ULD6): below the threshold; pKd (PTPN13_5, Q12923): below the threshold; pKd (RIMS1, Q86UR5): below the threshold; pKd (SDCBP_1, O00560): below the threshold; pKd (SHROOM2, Q13796): 4.35; pKd (TJP3_2, O95049): below the threshold; pKd (USH1C_2, Q9Y6N9): below the threshold |
| SSRTRRETQL [HPV16-E6, P03126] | below the threshold | 4.92 | 4.12 | below the threshold | 4.13 | below the threshold | below the threshold | 4.16 | below the threshold | below the threshold | below the threshold | 3.96 | below the threshold | below the threshold | below the threshold | below the threshold | below the threshold | below the threshold | below the threshold | below the threshold | pKd (GRIP2_2, Q9C0E4): below the threshold; pKd (INTU, Q9ULD6): below the threshold; pKd (PTPN13_5, Q12923): below the threshold; pKd (RIMS1, Q86UR5): below the threshold; pKd (SDCBP_1, O00560): below the threshold; pKd (SHROOM2, Q13796): below the threshold; pKd (TJP3_2, O95049): below the threshold; pKd (USH1C_2, Q9Y6N9): 3.92 |
| RSLEEEESQL [GRASP, Q7Z6J2] | 4.6 | below the threshold | below the threshold | below the threshold | 4.1 | below the threshold | below the threshold | below the threshold | below the threshold | below the threshold | below the threshold | below the threshold | below the threshold | below the threshold | below the threshold | below the threshold | below the threshold | below the threshold | below the threshold | below the threshold | pKd (GRIP2_2, Q9C0E4): below the threshold; pKd (PTPN13_5, Q12923): below the threshold; pKd (RIMS1, Q86UR5): below the threshold; pKd (SDCBP_1, O00560): below the threshold; pKd (SHROOM2, Q13796): below the threshold; pKd (TJP3_2, O95049): below the threshold; pKd (USH1C_2, Q9Y6N9): below the threshold |
